Laboratory results from US20220041718A1 (AUTOLUS, published 2022).

B1: hJovi-1 variant IgG, VH T28K, Y32F, A100N, Y102F, N103M; VL N35K (antibody, V domains shown)
VH: QVQLVQSGAEVKKPGASVKVSCKASGYKFTGFVMHWVRQAPGQGLEWMGFINPYNDDIQSNERFRGRVTMTRDTSISTAYMELSRLRSDDTAVYYCARGNGFMFDGAYRFFDFWGQGTMVTVSS
VL: DIVMTQSPLSLPVTPGEPASISCRSSQRLVHSNGKTYLHWYLQKPGQSPRLLIYRVSNRFPGVPDRFSGSGSGTDFTLKISRVEAEDVGVYYCSQSTHVPYTFGQGTKLEIK
notes: IgG format
B2: hJovi-1 variant IgG, VH T28R, Y32F, A100N; VL unmutated (antibody, V domains shown)
VH: QVQLVQSGAEVKKPGASVKVSCKASGYRFTGFVMHWVRQAPGQGLEWMGFINPYNDDIQSNERFRGRVTMTRDTSISTAYMELSRLRSDDTAVYYCARGNGYNFDGAYRFFDFWGQGTMVTVSS
VL: DIVMTQSPLSLPVTPGEPASISCRSSQRLVHSNGNTYLHWYLQKPGQSPRLLIYRVSNRFPGVPDRFSGSGSGTDFTLKISRVEAEDVGVYYCSQSTHVPYTFGQGTKLEIK
notes: IgG format
B3: hJovi-1 variant IgG, VH T28K, Y32F, A100N; VL N35K (antibody, V domains shown)
VH: QVQLVQSGAEVKKPGASVKVSCKASGYKFTGFVMHWVRQAPGQGLEWMGFINPYNDDIQSNERFRGRVTMTRDTSISTAYMELSRLRSDDTAVYYCARGNGYNFDGAYRFFDFWGQGTMVTVSS
VL: DIVMTQSPLSLPVTPGEPASISCRSSQRLVHSNGKTYLHWYLQKPGQSPRLLIYRVSNRFPGVPDRFSGSGSGTDFTLKISRVEAEDVGVYYCSQSTHVPYTFGQGTKLEIK
notes: IgG format
B4: hJovi-1 variant IgG, VH T28K, Y32F, A100N, Y102L, N103W; VL N35R (antibody, V domains shown)
VH: QVQLVQSGAEVKKPGASVKVSCKASGYKFTGFVMHWVRQAPGQGLEWMGFINPYNDDIQSNERFRGRVTMTRDTSISTAYMELSRLRSDDTAVYYCARGNGLWFDGAYRFFDFWGQGTMVTVSS
VL: DIVMTQSPLSLPVTPGEPASISCRSSQRLVHSNGRTYLHWYLQKPGQSPRLLIYRVSNRFPGVPDRFSGSGSGTDFTLKISRVEAEDVGVYYCSQSTHVPYTFGQGTKLEIK
notes: IgG format
B5: hJovi-1 variant IgG, VH V2K, T28K, Y32F, A100N; VL unmutated (antibody, V domains shown)
VH: QKQLVQSGAEVKKPGASVKVSCKASGYKFTGFVMHWVRQAPGQGLEWMGFINPYNDDIQSNERFRGRVTMTRDTSISTAYMELSRLRSDDTAVYYCARGNGYNFDGAYRFFDFWGQGTMVTVSS
VL: DIVMTQSPLSLPVTPGEPASISCRSSQRLVHSNGNTYLHWYLQKPGQSPRLLIYRVSNRFPGVPDRFSGSGSGTDFTLKISRVEAEDVGVYYCSQSTHVPYTFGQGTKLEIK
notes: IgG format
B6: hJovi-1 variant IgG, VH Y27F, T28K, Y32F, A100N; VL unmutated (antibody, V domains shown)
VH: QVQLVQSGAEVKKPGASVKVSCKASGFKFTGFVMHWVRQAPGQGLEWMGFINPYNDDIQSNERFRGRVTMTRDTSISTAYMELSRLRSDDTAVYYCARGNGYNFDGAYRFFDFWGQGTMVTVSS
VL: DIVMTQSPLSLPVTPGEPASISCRSSQRLVHSNGNTYLHWYLQKPGQSPRLLIYRVSNRFPGVPDRFSGSGSGTDFTLKISRVEAEDVGVYYCSQSTHVPYTFGQGTKLEIK
notes: IgG format
B7: hJovi-1 variant IgG, VH T28K, Y32F, A100N, Y102F, N103M; VL N35R (antibody, V domains shown)
VH: QVQLVQSGAEVKKPGASVKVSCKASGYKFTGFVMHWVRQAPGQGLEWMGFINPYNDDIQSNERFRGRVTMTRDTSISTAYMELSRLRSDDTAVYYCARGNGFMFDGAYRFFDFWGQGTMVTVSS
VL: DIVMTQSPLSLPVTPGEPASISCRSSQRLVHSNGRTYLHWYLQKPGQSPRLLIYRVSNRFPGVPDRFSGSGSGTDFTLKISRVEAEDVGVYYCSQSTHVPYTFGQGTKLEIK
notes: IgG format
B8: hJovi-1 variant IgG, VH V2R, T28K, Y32F, A100N; VL unmutated (antibody, V domains shown)
VH: QRQLVQSGAEVKKPGASVKVSCKASGYKFTGFVMHWVRQAPGQGLEWMGFINPYNDDIQSNERFRGRVTMTRDTSISTAYMELSRLRSDDTAVYYCARGNGYNFDGAYRFFDFWGQGTMVTVSS
VL: DIVMTQSPLSLPVTPGEPASISCRSSQRLVHSNGNTYLHWYLQKPGQSPRLLIYRVSNRFPGVPDRFSGSGSGTDFTLKISRVEAEDVGVYYCSQSTHVPYTFGQGTKLEIK
notes: IgG format
B9: hJovi-1 variant IgG, VH Y27N, T28K, Y32F, A100N; VL unmutated (antibody, V domains shown)
VH: QVQLVQSGAEVKKPGASVKVSCKASGNKFTGFVMHWVRQAPGQGLEWMGFINPYNDDIQSNERFRGRVTMTRDTSISTAYMELSRLRSDDTAVYYCARGNGYNFDGAYRFFDFWGQGTMVTVSS
VL: DIVMTQSPLSLPVTPGEPASISCRSSQRLVHSNGNTYLHWYLQKPGQSPRLLIYRVSNRFPGVPDRFSGSGSGTDFTLKISRVEAEDVGVYYCSQSTHVPYTFGQGTKLEIK
notes: IgG format
B10: hJovi-1 variant IgG, VH T28K, Y32F, A100N, Y102L, N103W; VL N35K (antibody, V domains shown)
VH: QVQLVQSGAEVKKPGASVKVSCKASGYKFTGFVMHWVRQAPGQGLEWMGFINPYNDDIQSNERFRGRVTMTRDTSISTAYMELSRLRSDDTAVYYCARGNGLWFDGAYRFFDFWGQGTMVTVSS
VL: DIVMTQSPLSLPVTPGEPASISCRSSQRLVHSNGKTYLHWYLQKPGQSPRLLIYRVSNRFPGVPDRFSGSGSGTDFTLKISRVEAEDVGVYYCSQSTHVPYTFGQGTKLEIK
notes: IgG format
B11: hJovi-1 variant IgG, VH T28K, Y32F, A100N, Y102F; VL unmutated (antibody, V domains shown)
VH: QVQLVQSGAEVKKPGASVKVSCKASGYKFTGFVMHWVRQAPGQGLEWMGFINPYNDDIQSNERFRGRVTMTRDTSISTAYMELSRLRSDDTAVYYCARGNGFNFDGAYRFFDFWGQGTMVTVSS
VL: DIVMTQSPLSLPVTPGEPASISCRSSQRLVHSNGNTYLHWYLQKPGQSPRLLIYRVSNRFPGVPDRFSGSGSGTDFTLKISRVEAEDVGVYYCSQSTHVPYTFGQGTKLEIK
notes: IgG format
B12: hJovi-1 variant IgG, VH T28K, Y32F, R98K, A100N; VL unmutated (antibody, V domains shown)
VH: QVQLVQSGAEVKKPGASVKVSCKASGYKFTGFVMHWVRQAPGQGLEWMGFINPYNDDIQSNERFRGRVTMTRDTSISTAYMELSRLRSDDTAVYYCAKGNGYNFDGAYRFFDFWGQGTMVTVSS
VL: DIVMTQSPLSLPVTPGEPASISCRSSQRLVHSNGNTYLHWYLQKPGQSPRLLIYRVSNRFPGVPDRFSGSGSGTDFTLKISRVEAEDVGVYYCSQSTHVPYTFGQGTKLEIK
notes: IgG format
B13: hJovi-1 variant IgG, VH Y27W, T28K, Y32F, A100N; VL unmutated (antibody, V domains shown)
VH: QVQLVQSGAEVKKPGASVKVSCKASGWKFTGFVMHWVRQAPGQGLEWMGFINPYNDDIQSNERFRGRVTMTRDTSISTAYMELSRLRSDDTAVYYCARGNGYNFDGAYRFFDFWGQGTMVTVSS
VL: DIVMTQSPLSLPVTPGEPASISCRSSQRLVHSNGNTYLHWYLQKPGQSPRLLIYRVSNRFPGVPDRFSGSGSGTDFTLKISRVEAEDVGVYYCSQSTHVPYTFGQGTKLEIK
notes: IgG format
B14: hJovi-1 variant IgG, VH T28K, Y32F, A100N; VL N35F (antibody, V domains shown)
VH: QVQLVQSGAEVKKPGASVKVSCKASGYKFTGFVMHWVRQAPGQGLEWMGFINPYNDDIQSNERFRGRVTMTRDTSISTAYMELSRLRSDDTAVYYCARGNGYNFDGAYRFFDFWGQGTMVTVSS
VL: DIVMTQSPLSLPVTPGEPASISCRSSQRLVHSNGFTYLHWYLQKPGQSPRLLIYRVSNRFPGVPDRFSGSGSGTDFTLKISRVEAEDVGVYYCSQSTHVPYTFGQGTKLEIK
notes: IgG format
B15: hJovi-1 variant IgG, VH T28K, Y32F, A100N; VL N35R (antibody, V domains shown)
VH: QVQLVQSGAEVKKPGASVKVSCKASGYKFTGFVMHWVRQAPGQGLEWMGFINPYNDDIQSNERFRGRVTMTRDTSISTAYMELSRLRSDDTAVYYCARGNGYNFDGAYRFFDFWGQGTMVTVSS
VL: DIVMTQSPLSLPVTPGEPASISCRSSQRLVHSNGRTYLHWYLQKPGQSPRLLIYRVSNRFPGVPDRFSGSGSGTDFTLKISRVEAEDVGVYYCSQSTHVPYTFGQGTKLEIK
notes: IgG format
B16: hJovi-1 variant IgG, VH T28K, Y32F, A100N, Y102L, N103M; VL N35R (antibody, V domains shown)
VH: QVQLVQSGAEVKKPGASVKVSCKASGYKFTGFVMHWVRQAPGQGLEWMGFINPYNDDIQSNERFRGRVTMTRDTSISTAYMELSRLRSDDTAVYYCARGNGLMFDGAYRFFDFWGQGTMVTVSS
VL: DIVMTQSPLSLPVTPGEPASISCRSSQRLVHSNGRTYLHWYLQKPGQSPRLLIYRVSNRFPGVPDRFSGSGSGTDFTLKISRVEAEDVGVYYCSQSTHVPYTFGQGTKLEIK
notes: IgG format
B17: hJovi-1 variant IgG, VH T28K, Y32F, A100N, Y102F; VL N35R (antibody, V domains shown)
VH: QVQLVQSGAEVKKPGASVKVSCKASGYKFTGFVMHWVRQAPGQGLEWMGFINPYNDDIQSNERFRGRVTMTRDTSISTAYMELSRLRSDDTAVYYCARGNGFNFDGAYRFFDFWGQGTMVTVSS
VL: DIVMTQSPLSLPVTPGEPASISCRSSQRLVHSNGRTYLHWYLQKPGQSPRLLIYRVSNRFPGVPDRFSGSGSGTDFTLKISRVEAEDVGVYYCSQSTHVPYTFGQGTKLEIK
notes: IgG format

Experiments:
[1] = biological target: T1, Recombinant purified TRBC2 (human, UniProt A0A5B9 1-129, limits assumed); assay: SPR, IgG captured on anti-human Fc, TRBC2 as analyte
T1 construct: Construct not described (may be a soluble TCR carrying TRBC2); also called TCR beta constant region 2; soluble recombinant biotinylated TRBC2
T1 sequence (A0A5B9 1-129 limits assumed): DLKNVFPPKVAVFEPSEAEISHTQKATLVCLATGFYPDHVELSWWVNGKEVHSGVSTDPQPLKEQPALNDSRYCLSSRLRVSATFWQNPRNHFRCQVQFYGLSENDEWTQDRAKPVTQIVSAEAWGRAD
Excerpt: (§1) A series S CM5 sensor chip was immobilised via amine coupling, with an anti-human Fc capture antibody to a density of 9000-10000 RU, using a Biacore T200 instrument. HBS-P+ buffer was used as running buffer in all experimental conditions. The test anti-TRBC2 antibodies (Table 1) were captured on flow cells 2, 3 and 4 to a density of 100-300 RU. Recombinant purified TRBC1 or TRBC2 at known concentrations were used as the ‘analyte’ and injected over the respective flow cells with 150s contact time and 300s dissociation at 30 μl/minute of flow rate. In each experiment, flow cell 1 was unmodified and used for reference subtraction. A ‘0 concentration’ sensorgram of buffer alone was used as a double reference subtraction to factor for drift. Data were fit to a 1:1 Langmuir binding model. Since a capture system was used, a local Rₘₐₓ parameter was used for the data fitting in each case.

[2] = biological target: T2, Recombinant purified TRBC1 (human, UniProt P01850 1-129, limits assumed); assay: SPR, IgG captured on anti-human Fc, TRBC1 as analyte
T2 construct: Construct not described (may be a soluble TCR carrying TRBC1); also called TCR beta constant region 1; soluble recombinant biotinylated TRBC1
T2 sequence (P01850 1-129 limits assumed): as the sequence (A0A5B9 1-129 limits assumed) above, with K3N, N4K, K9E, Y36F counted along it
Excerpt: as §1

Row | Binder | Kd [1] [nM] | Kd [2] [nM] | binding result [2]
1 | B1 | 909 | 9310 | –
2 | B2 | 582 | 1440 | –
3 | B3 | 192 | 1000 | –
4 | B4 | 1510 | – | no binding
5 | B5 | 883 | 2400 | –
6 | B6 | 1210 | 4480 | –
7 | B7 | 968 | 7910 | –
8 | B8 | 1600 | 5110 | –
9 | B9 | 6950 | 74300 | –
10 | B10 | 1720 | – | no binding
11 | B11 | 2610 | – | no binding
12 | B12 | 1080 | 4660 | –
13 | B13 | 3060 | 21000 | –
14 | B14 | 646 | 2810 | –
15 | B15 | 202 | 929 | –
16 | B16 | 1900 | – | no binding
17 | B17 | 2700 | 18900 | –
